Experimental data taken from the nanobody polyreactivity screen of Harvey et al. (2022).

Assay: yeast display, Sf9 membrane polyspecificity reagent, FACS + sequencing; frameworks hold sequencing errors
Outline: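 Nanobodies came from a synthetic yeast display library in Saccharomyces cerevisiae BJ5465, induced with galactose for 36–48 hours and stained for 1 hour at 4 °C with 10% biotinylated, detergent-solubilized Sf9 membrane reagent. Cells were enriched on streptavidin microbeads and then FACS-sorted, with low and high (top ~1%) gates set on anti-HA fluorescence for expression and streptavidin fluorescence for reagent binding. Each polyreactivity label reflects the gate a clone came from. Genes were amplified by colony PCR, sequenced by MiSeq 2 × 250 and filtered by CDR length.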

Row | Sequence | polyreactivity (PSR sort gate)
1 | QDQHVESGGGLVQAGGSLRLSCAASGHTFRLYTMGWYRQAPGKEREFVAAIRRRTGSTYYADSVKGRFTISRDNAQNTVYLQRNSMKAEVTAVYYCNAVGDARYNYRGQGTQVTVSS | high polyreactivity
2 | QVQLVESGGGLVQAGGSLRLSCAASGRTFVPYAMGWYRQAPGKERELVAAITWSGGRTRYADSVKGRFTISRDNAKNTVYLQMNSLKPEDTAVYYCARYYWLYSSSYDYWGQGTQVTVSS | high polyreactivity
3 | QVQLVESGGGIVQAGGSLRLSCAASGSTLVKYAMGWYRQAPGKERELVAAISWSGGRTYYADSVKGRFTISRDNAKNTVYLQMNSLKPEDTAVYYCAARRKAVRYDYWGQGTQVTVSS | high polyreactivity
4 | QVQIVESGGGLVQAGGSLRLSCAASGSTFSRYAMGWYRQAPGKERELVAVITKSGGRTYYADSVKGRFRISRDNAKNTVYLQKHSLKAEDTADYYCAAYPNKSQTADGYWGQGTQVTVSS | high polyreactivity
5 | QVQLVESGGGLVQAGGSLRLSCAASGSTFRYYAMGWYRQAPGKERELVAAIDRSGGNTYYADSVKGRFTISRDNAKNTVYLQMYSLKPEDTAVYYCNTASWRAQYYYWGQGTQVTVSS | high polyreactivity
6 | QVQLVESGGGLVQAGGSLRLSCAASGFTFDYYTMGWYRQAPGKEREFVAAITWNGGSTYYADSVKGRFTISRYNAKNTVYLQMNSLKPEDSAVYYCAADTTYGINRREYWGQGTQVTVSS | low polyreactivity
7 | QVQLVESGGGLVQAGGSLRLSCAASGIIFTKYVMGWYRQAPGKERELVAAINTDGGSTRYADSVKGRFTISRDNAKNTVYLQMNSLIPEDTAVYYCNTVWFYGAKYDYWGQGTQVTVSS | high polyreactivity
8 | QVQLVESGGGLVQAGGSLRLSCAASGLIFGPYAVGWYRQAPGKERELVAGISRGGSTYYADSVKGRFTISRDNAKKTVYLQMNSLKPEDTAVYYCAASRRYRGVNRPGDYWGQGTQVTVSS | high polyreactivity
9 | QVQLVESGGGLVQAGGSLRLSCAAYGSTFWANAMGWYRQAPGKERELVAAIRGTGGSTYADSVKGRFTISRDNAKNTVYLQMNSLKPEDTAVYYCNAKGRGWTAQYDYWGQGTQVTVSS | low polyreactivity
10 | QVQLVESGGGLVQAGGSLRLSCADSGRTIPFYAMGWYRQAPGKERELVAAISSSAGRTYYADSVKGRFTISRDNAKNTVSLQMNSLKPEDTAVYYCAARLYGRYRYDYWGQGTQVTVSS | low polyreactivity
11 | QVQLVESGGGLVQAGGSLRLSCAASGSIFYYYAMGWYRPAPGKERELVAAINSSGGNTYYADSVKGRFTISRDNAKNTVYLQMNSLKPEDTAVYYCAAASRSTNYNYWGQGTQVTVSS | high polyreactivity
12 | QVQLVESGGGLVQAGGSLRLSCAASGSTFRRYAMGWYRQAPGKERELVAAISSNGGSTYYADSVKGRFTISRDNAKNTVYLQMNSLKPEDTAVYYCAAYRSLDFDYWGQGTQVTVSS | high polyreactivity
13 | QVQLVESGGGLFQAGGSLRLSCAASGSTFYSYAMGWYRKAPGKERELVAAISRNGGYTYYADSVKGRFTISRDNAKNTVYLQMNSLKPEDTAVYYCAALRYVHGYDYWGQGTQVTGSS | high polyreactivity
14 | QVQLVESGGGLVQAGGSLRLSCAASGSIFTYNAMGWYREAPGKERELVAAIRLSGGSTYYADSVKGRFTISRDNAKNTVYLQMNSLKPEDTAVYYCAAESAAASAVYSVEYDYWGQGTQVTVSS | low polyreactivity
15 | QVQLVESGGGLVQAGGSLRLSCAASGSIFRNYAMGWYRQAPGKEREFVAAISGGGGSTYYADSVKGRFTISRDNAKNTVYLQMNSLKPEDTAVYYCARVRYYGALKLYAYDHWGQGTQVTVSS | high polyreactivity
16 | QVQLVESGGGLVQAGGSLRLSCAASGSTFWTNAMGWNRQAPGKERELVATITYSTGTYADSVKGRFTISRDNAKNTVYLQMNSLKPEDTAVYYCAATGVPGWVGFDYWGQGTQVSVSS | low polyreactivity
17 | QVQLVESGGGLVQAGGSLRLSCAASGIIVPYNAMGWYRQEPGKVRYLVSAITSGGSTYYADSVKGRFTISRDNAKNTVYLQMNSMKPEDTAVYYCAKVPLSARRNNQSWAYDYWGQGTQVTVSS | low polyreactivity
18 | QVQLVESGGGLVQAGASLRLSCAASGSIFVLYGMGWYRQAPGKERELVAAISAGITNYADSVKGRFTISRDNAKNTVYLQMNSLKPEDTAVYYCATVDGAYQYTYDFWGQGTQVTVSS | low polyreactivity
19 | QVQLVESGGGLVQAGGSLRLSCAASGSSIYVYVMGWYRQAPGKERELVAVIDWRGGSTYYADSVKGRFTISRDNAKNTVYLQMNSLKPEDSSVYYCNKVAQFYYKLPYYKERDWGQGTQVTVSS | low polyreactivity
20 | QVQLVESGGGLVQAGCSLRLSCAASGRIDRRYAMGWYRQAPGKERDLFAAISSRGGRTYYADSVKGRFTISRDNAMNTVYLQMNSLKQEDTAVYYCAARPAGYGHYKYYYWGKGTQVTVSS | high polyreactivity
21 | QVQLVESGGGLVQAGGSLRLSCAASGYILTHYAMGWYRQAPGKERELVAAITRVGNTNYADSVKGRFTISRDNAKNTVYLQMNSLKPEDTAVYYCAVTYNGDSSWPGDYWGQGTQVTVSS | low polyreactivity
22 | QVQLVESGGGLVQAGGSLRLSCAASGSIFGNAMGWYRQAPGKERELVAAISRRGGRTYYADSVKGRFTISRDNAKNTVYLQMNSLKPEDTAVYYCNKYVTPWNEMDYWGQGTQVTVSS | high polyreactivity

Row | Sequence | polyreactivity (PSR sort gate)
23 | QVQLVESGGGLVQAGGSLRLSCAASGSIFRYNAMGWYRQAPGKERELVAAIRSGGSTYYADSVKGRFTISRDNAKNTVYLQMNSLKPEDTAVYYCNARRYVGYDYWGQGTQVTVSS | high polyreactivity
24 | QVQLVESGGGLVQAGGSLRLSCAASGSTFQYYAMGWYRQAPGKERELVAAISYGGSRTYYADSVKGRFTISRDNAKNNVYLQMNSLKPEDTAVYYCAKVKYRALAPYYYWGQGTQVTVSS | high polyreactivity
25 | QVQHVESGGGLVQAGGSLRLSCAASGRIIYRYAMGWYRQATGKERELVATITWSTTSTYYADSVKGRFTISREYAKNTVYLQMNSLKPVDTAVYYCAASIIPGFRRDPFGYWGQGTQVTVSS | low polyreactivity
26 | QVQLVESGGGLVQAGGSLRLSCAASGRIFAYYAMGWYRPAPGIERELVATIRGGGSTNYADSVKGRFTISRDNAKNTVYLQMNSLKPEATAVYYCAKPGAKWRGFDYWGLGTQVTVSS | low polyreactivity
27 | QVQLVESGGGLVQAGGSLRLSCAASGFTFTYNDMGWYRQAPGKEREFVAAISSTGGSTYYADSVQGRFTISRDNAKNTVYLQMNSLKPEDTAVYYCAAEDSWYWDAWFDYWGQGTQVTVSS | low polyreactivity
28 | QDQLVESGGGLVQAGGSLRLSCAASGSIIVRNAMGWYRQAPGKERELVAAISRSGSSTYYADSVKGRFTISRDNAKITVFCQMNSLKPEDTAVYYCAKRRPALRWIYYYWGQGTQVTVSS | high polyreactivity
29 | QVQLVESGGGLVQAGGSLRLSCAASGSIFLKYAMGWYRQAPGKERELVAAISSRGGSTYYADSVKGRFTISRDNAKNTVYLQMNSLKPEDTAVYYCAAKRWPGTDGYWGQGTQVTVSS | high polyreactivity
30 | QVQLVESGGGLVQAGGILRLSCAASGSTFSSNAMGWYRQAPGKERELVAAISKRGGRTYYADSVKGRFTISRDNAKNTVYLQMNSLKPEDTAVYYCAAEYWVPAWKFGYEYWGQGTQVTVSS | high polyreactivity
31 | QVQLVESGGGLVQAGGSLRLSCAASGRTFTVNPMGWYRQAPGKERELVAAITSGGTTKYADSVKGRFTISRDNAKNTVYLQMNSLKPEDTAVYYCAARVYFPVQYPWFYFEYGYWGQGTQVTVSS | high polyreactivity
32 | QVQLVESGGGLVQAGGSLRLSCAASGSTFPQYAMGWSRQAPGKERELVAAISWSGGRTYYADSVKGRFTISRDNAKNTVYLQMNSLKPEDTAVYYCAATYPGQYGYNYWGQGTQVTVSS | high polyreactivity
33 | QVQLVESGGGLVQAGGSLRLSCAASGRIFDVYAMGWYRQAPVKERELVAAITWRGGTTYYADSVKGRFTISRDNAKNTVYLQMHTLKPEDTAVYYCNADLVYYSKHQKYSYDYWGQGTQVTVSS | low polyreactivity
34 | QVQLVESGGGLVQAGGSLRLSCAASGRIFSSYAMGWYRQAPGKERELVAAISSRGGSTYYADSVKGRFTISRDNAKNTVYLQMNSLKPEDTAVYYCARVKYSGVVYKYDYWGQGTQVTVSS | high polyreactivity
35 | QVQLVESGGGLVQAGGSLRLSCAASGNIFYAYDMGWYRQAPGKERELVAAITNGDSTDYADSVKGRFTISRDNAKNTVYLQMNSLKPEDTAVYYCNAYYLPEPWALGGSQYDYWGQGTQVTVSS | low polyreactivity
36 | QVQLVESGGGLVQAGGSLRLSCAASGIICDYNAMGWYRQAPGKERELVAAITSTDNTNYADSVKGRFTISRDNAKNTVYLQMNSLKPEDTAVYSCNTDYWLSVVYAMDYWGQGTQVTVSS | low polyreactivity
37 | QVQLVESGGGLVQAGGSLRLSCAASGRTFLVNAMGWYRQAPGKEREFVAAITSRSGRTNYADSVKGRFTISRDNAKNTVYLQSNSLKPEDTAVYYCNAEGYTVKYWYSRYDYWGQGTQVTVSS | high polyreactivity
38 | QVQLVESGGGLVQAGGSLRLSCAASGRTFAKYAMGLYRQAPGKERELVAAITRGDTTNYADSVKGRFTISRDNAKNTVYLQMNSLKPEDTAVYYCAATPDPPHTYEYWGQGTQVTVSS | low polyreactivity
39 | QFQLVESGGGLVQAGGSLRLSCAASGCTLQRNNRGWYRQAPGKDSEFVARISRRACSTYYADSVKGRITISRDNAKNTVYLQMNSLKPEDTAVYYCSTEDRGLTTRYPYDYWGQGTQVTVSS | high polyreactivity
40 | QVQLVESGGGLVQAGGSLRLSCAASGYIFYFNAMGRYRQAPGKERELVAVISDRDDSTYYADSVKGRFTISRDNAKNTVYLQMNSLKPEDTAVYYCAADGDTYVDDPYDYWGQGTQVTVSS | low polyreactivity
41 | QVQLVESGGGLVQAGGSLRLSCAASGLIFVVYAMGWYRQAPGKERELVAVISSDGGTYYADSVKGRFTISRDNAKNTVYLQMNSLKPEDTAVYYCAALGYPNARTSRISYFRYDYWGQGTQVTVSS | high polyreactivity
42 | QVQLVESGGGLVQAGGSLRLSCAASGSIFTRYTMGWYRQAPGKERELVAVISDSSGRTYYADSVKGRFTISRDNGKNTVYLQMNSLKPEDTAVYYCAAEYSDIYEYWGQGTQVTVSS | low polyreactivity
43 | QVQLVESGGGLVQAGGSLRLSCAASGRTFRKYAMGWYRQAPGKERELVAAISWSGGSTYYANSVKGRFTISRDYAKNTVYLQMNILKPEDTAVYYCAAVPVHTGSLYWGFTTGYDYWGQGTQVTVSS | low polyreactivity
